Measurements: patent publication US11306156
Values joined by “and” are separate entries in the source; they are usually repeats but may differ in a detail not shown here. Equal entries are not always repeated.

Experiments:
[1] = biological target: D3H44 light chain Q124E_V133E, N-terminal HA or FLAG tag; assay: LCCA, L1:L2 DNA 1:3, SPR of light chain tags; competing light chain m17
[2] = biological target: D3H44 light chain Q124E_Q160E_T178E, N-terminal HA or FLAG tag; assay: LCCA, L1:L2 DNA 1:3, SPR of light chain tags; competing light chain m14
[3] = biological target: D3H44 light chain Q124E_T180E, N-terminal HA or FLAG tag; assay: as above
[4] = biological target: D3H44 light chain Q124E_V133E, N-terminal HA or FLAG tag; assay: LCCA, L1:L2 DNA 1:9, SPR of light chain tags; competing light chain m17
[5] = biological target: D3H44 light chain Q124R_Q160K_T178R, N-terminal HA or FLAG tag; assay: LCCA, L1:L2 DNA 1:3, SPR of light chain tags; competing light chain m20
[6] = biological target: D3H44 light chain Q124R, N-terminal HA or FLAG tag; assay: LCCA, L1:L2 DNA 1:9, SPR of light chain tags; competing light chain m18
[7] = biological target: D3H44 light chain Q124R_Q160K_T178R, N-terminal HA or FLAG tag; assay: LCCA, L1:L2 DNA 1:3, SPR of light chain tags; competing light chain m13
[8] = biological target: D3H44 light chain Q124R, N-terminal HA or FLAG tag; assay: LCCA, L1:L2 DNA 1:3, SPR of light chain tags; competing light chain m18
[9] = biological target: D3H44 light chain Q124E_V133E, N-terminal HA or FLAG tag; assay: LCCA, L1:L2 DNA 1:3, SPR of light chain tags; competing light chain m14
[10] = biological target: D3H44 light chain Q124R_Q160K_T178R, N-terminal HA or FLAG tag; assay: LCCA, L1:L2 DNA 1:9, SPR of light chain tags; competing light chain m18
[11] = biological target: D3H44 light chain Q124R_Q160K_T178R, N-terminal HA or FLAG tag; assay: LCCA, L1:L2 DNA 1:3, SPR of light chain tags; competing light chain m18
[12] = biological target: D3H44 light chain Q124E_V133E, N-terminal HA or FLAG tag; assay: LCCA, L1:L2 DNA 1:9, SPR of light chain tags; competing light chain m14
[13] = biological target: D3H44 light chain Q124E_Q160E_T180E, N-terminal HA or FLAG tag; assay: LCCA, L1:L2 DNA 1:3, SPR of light chain tags; competing light chain m15
[14] = biological target: D3H44 light chain Q124E_T180E, N-terminal HA or FLAG tag; assay: as above
[15] = biological target: D3H44 light chain Q124R_T178R, N-terminal HA or FLAG tag; assay: LCCA, L1:L2 DNA 1:3, SPR of light chain tags; competing light chain m19
[16] = biological target: D3H44 light chain Q124E_Q160E_T180E, N-terminal HA or FLAG tag; assay: LCCA, L1:L2 DNA 1:9, SPR of light chain tags; competing light chain m16
[17] = biological target: D3H44 light chain Q124E_S176L_T180E, N-terminal HA or FLAG tag; assay: LCCA, L1:L2 DNA 1:3, SPR of light chain tags; competing light chain m12
[18] = biological target: D3H44 light chain Q124E_Q160E_T180E, N-terminal HA or FLAG tag; assay: as above
[19] = biological target: D3H44 light chain Q124E_T180E, N-terminal HA or FLAG tag; assay: as above
[20] = biological target: D3H44 light chain Q124E_Q160E_T180E, N-terminal HA or FLAG tag; assay: LCCA, L1:L2 DNA 1:9, SPR of light chain tags; competing light chain m12
[21] = biological target: D3H44 light chain Q124E_Q160E_T180E, N-terminal HA or FLAG tag; assay: LCCA, L1:L2 DNA 1:9, SPR of light chain tags; competing light chain m15
[22] = biological target: D3H44 light chain Q124E_Q160E_T180E, N-terminal HA or FLAG tag; assay: LCCA, L1:L2 DNA 1:3, SPR of light chain tags; competing light chain m16
[23] = biological target: D3H44 light chain Q124R_T178R, N-terminal HA or FLAG tag; assay: LCCA, L1:L2 DNA 1:3, SPR of light chain tags; competing light chain m13
[24] = biological target: D3H44 light chain Q124K_T178R, N-terminal HA or FLAG tag; assay: as above
[25] = biological target: D3H44 light chain T178R, N-terminal HA or FLAG tag; assay: as above
[26] = biological target: D3H44 light chain Q124R_T178R, N-terminal HA or FLAG tag; assay: LCCA, L1:L2 DNA 1:9, SPR of light chain tags; competing light chain m11
[27] = biological target: D3H44 light chain Q124K_T178R, N-terminal HA or FLAG tag; assay: as above
[28] = biological target: D3H44 light chain Q124R_T178K, N-terminal HA or FLAG tag; assay: as above
[29] = biological target: D3H44 light chain Q124E_T180E, N-terminal HA or FLAG tag; assay: LCCA, L1:L2 DNA 1:3, SPR of light chain tags; competing light chain m10
[30] = biological target: D3H44 light chain Q124R_T178R, N-terminal HA or FLAG tag; assay: LCCA, L1:L2 DNA 1:3, SPR of light chain tags; competing light chain m11
[31] = biological target: D3H44 light chain Q124K_T178R, N-terminal HA or FLAG tag; assay: as above
[32] = biological target: D3H44 light chain Q124R_T178K, N-terminal HA or FLAG tag; assay: as above
[33] = biological target: D3H44 light chain Q124E_V133Y_T180E, N-terminal HA or FLAG tag; assay: LCCA, SPR of light chain tags, L1:L2 DNA 1:3 norm. to 1:1; other light chain m14
[34] = biological target: D3H44 light chain Q124R_T178R, N-terminal HA or FLAG tag; assay: LCCA, SPR of light chain tags, L1:L2 DNA 1:3 norm. to 1:1; other light chain m22
[35] = biological target: D3H44 light chain Q124R_T178R, N-terminal HA or FLAG tag; assay: LCCA, L1:L2 DNA 1:9, SPR of light chain tags; competing light chain m19
[36] = biological target: D3H44 light chain Q124E_S176L_T180E, N-terminal HA or FLAG tag; assay: LCCA, L1:L2 DNA 1:9, SPR of light chain tags; competing light chain m12
[37] = biological target: D3H44 light chain Q124E_Q160E_T180E, N-terminal HA or FLAG tag; assay: LCCA, L1:L2 DNA 1:9, SPR of light chain tags; competing light chain m10
[38] = biological target: D3H44 light chain T178R, N-terminal HA or FLAG tag; assay: LCCA, L1:L2 DNA 1:9, SPR of light chain tags; competing light chain m11
[39] = biological target: D3H44 light chain Q124E_Q160E_T180E, N-terminal HA or FLAG tag; assay: LCCA, L1:L2 DNA 1:3, SPR of light chain tags; competing light chain m10
[40] = biological target: D3H44 light chain T178R, N-terminal HA or FLAG tag; assay: LCCA, L1:L2 DNA 1:3, SPR of light chain tags; competing light chain m11

D3H44 Fab heavy chain L143E_K145T, C-terminal ABD2-His6 tag
H1L1:H1L2 normalized median ratio [1]: 9 share of 100
H1L1:H1L2 normalized median ratio [2]: 41 share of 100
H1L1:H1L2 normalized median ratio [3]: 41 share of 100
H1L1:H1L2 normalized median ratio [4]: 12 share of 100
H1L1:H1L2 normalized median ratio [5]: 59 share of 100
H1L1:H1L2 normalized median scalar value ln(r1/f1) [5]: 0.37
H1L1:H1L2 normalized median ratio [6]: 88 share of 100
H1L1:H1L2 normalized median scalar value ln(r1/f1) [6]: 1.95
H1L1:H1L2 normalized median ratio [7]: 59 share of 100
H1L1:H1L2 normalized median scalar value ln(r1/f1) [7]: 0.33 and 0.38
H1L1:H1L2 normalized median ratio [8]: 91 share of 100
H1L1:H1L2 normalized median scalar value ln(r1/f1) [8]: 2.37

D3H44 Fab heavy chain L143R, C-terminal ABD2-His6 tag
H2L2:H2L1 normalized median ratio [1]: 96 share of 100
H2L2:H2L1 normalized median ratio [9]: 96 share of 100
H2L2:H2L1 normalized median ratio [4]: 74 share of 100
H2L2:H2L1 normalized median ratio [10]: 7 share of 100
H2L2:H2L1 normalized median ratio [6]: 26 share of 100
H2L2:H2L1 normalized median ratio [11]: 4 share of 100
H2L2:H2L1 normalized median ratio [8]: 4 share of 100
H2L2:H2L1 normalized median ratio [12]: 93 share of 100

D3H44 Fab heavy chain Q179K, C-terminal ABD2-His6 tag
H2L2:H2L1 normalized median ratio [13]: 92 share of 100
H2L2:H2L1 normalized median ratio [14]: 96 share of 100
H2L2:H2L1 normalized median ratio [15]: 4 share of 100
H2L2:H2L1 normalized median ratio [3]: 96 share of 100
H2L2:H2L1 normalized median ratio [16]: 93 share of 100
H2L2:H2L1 normalized median ratio [17]: 96 share of 100
H2L2:H2L1 normalized median ratio [18]: 88 share of 100
H2L2:H2L1 normalized median ratio [19]: 96 share of 100
H2L2:H2L1 normalized median ratio [20]: 90 share of 100
H2L2:H2L1 normalized median ratio [21]: 90 share of 100
H2L2:H2L1 normalized median ratio [22]: 89 share of 100
H2L2:H2L1 normalized median ratio [7]: 4 share of 100
H2L2:H2L1 normalized median ratio [23]: 4 share of 100
H2L2:H2L1 normalized median ratio [24]: 4 share of 100
H2L2:H2L1 normalized median ratio [25]: 4 share of 100
H2L2:H2L1 normalized median ratio [26]: 10 share of 100
H2L2:H2L1 normalized median ratio [27]: 10 share of 100
H2L2:H2L1 normalized median ratio [28]: 7 share of 100
H2L2:H2L1 normalized median ratio [29]: 96 share of 100
H2L2:H2L1 normalized median ratio [30]: 12 share of 100
H2L2:H2L1 normalized median ratio [31]: 8 share of 100
H2L2:H2L1 normalized median ratio [32]: 11 share of 100

D3H44 Fab heavy chain L143A_Q179K, ABD2-His6 tagged
H1L1:H1L2 normalized median ratio [33]: 96%
H1L1:H1L2 normalized median scalar value ln(r1/f1) [33]: 1
H1L1:H1L2 normalized median ratio [34]: 4%

D3H44 Fab heavy chain S186K, C-terminal ABD2-His6 tag
H2L2:H2L1 normalized median ratio [15]: 4 share of 100
H2L2:H2L1 normalized median ratio [2]: 99 share of 100
H2L2:H2L1 normalized median ratio [3]: 97 share of 100
H2L2:H2L1 normalized median ratio [17]: 96 share of 100
H2L2:H2L1 normalized median ratio [19]: 94 share of 100
H2L2:H2L1 normalized median ratio [35]: 9 share of 100
H2L2:H2L1 normalized median ratio [5]: 1 share of 100
H2L2:H2L1 normalized median ratio [36]: 91 share of 100
H2L2:H2L1 normalized median ratio [22]: 92 share of 100
H2L2:H2L1 normalized median ratio [37]: 87 share of 100
H2L2:H2L1 normalized median ratio [7]: 3 share of 100
H2L2:H2L1 normalized median ratio [23]: 6 share of 100
H2L2:H2L1 normalized median ratio [25]: 4 share of 100
H2L2:H2L1 normalized median ratio [38]: 13 share of 100
H2L2:H2L1 normalized median ratio [39]: 91 share of 100
H2L2:H2L1 normalized median ratio [29]: 96 share of 100
H2L2:H2L1 normalized median ratio [40]: 9 share of 100
H2L2:H2L1 normalized median ratio [32]: 8 share of 100

D3H44 Fab heavy chain L143E_K145T_Q179E_S188L, C-terminal ABD2-His6 tag
H1L1:H1L2 normalized median ratio [15]: 87 share of 100
H1L1:H1L2 normalized median scalar value ln(r1/f1) [15]: 1.9
H1L1:H1L2 normalized median ratio [9]: 11 share of 100
H1L1:H1L2 normalized median ratio [17]: 13 share of 100
H1L1:H1L2 normalized median ratio [35]: 90 share of 100
H1L1:H1L2 normalized median scalar value ln(r1/f1) [35]: 2.25
H1L1:H1L2 normalized median ratio [36]: 10 share of 100
H1L1:H1L2 normalized median ratio [10]: 87 share of 100
H1L1:H1L2 normalized median scalar value ln(r1/f1) [10]: 1.86
H1L1:H1L2 normalized median ratio [11]: 89 share of 100
H1L1:H1L2 normalized median scalar value ln(r1/f1) [11]: 2.06
H1L1:H1L2 normalized median ratio [12]: 13 share of 100
